Consider 1 protein from patent US20080118499.

The target of this series is T1, in vitro translated GGA3 wild type (from HA-GGA3 pcDNA4 plasmid), Q9NZ52.
T1 chain: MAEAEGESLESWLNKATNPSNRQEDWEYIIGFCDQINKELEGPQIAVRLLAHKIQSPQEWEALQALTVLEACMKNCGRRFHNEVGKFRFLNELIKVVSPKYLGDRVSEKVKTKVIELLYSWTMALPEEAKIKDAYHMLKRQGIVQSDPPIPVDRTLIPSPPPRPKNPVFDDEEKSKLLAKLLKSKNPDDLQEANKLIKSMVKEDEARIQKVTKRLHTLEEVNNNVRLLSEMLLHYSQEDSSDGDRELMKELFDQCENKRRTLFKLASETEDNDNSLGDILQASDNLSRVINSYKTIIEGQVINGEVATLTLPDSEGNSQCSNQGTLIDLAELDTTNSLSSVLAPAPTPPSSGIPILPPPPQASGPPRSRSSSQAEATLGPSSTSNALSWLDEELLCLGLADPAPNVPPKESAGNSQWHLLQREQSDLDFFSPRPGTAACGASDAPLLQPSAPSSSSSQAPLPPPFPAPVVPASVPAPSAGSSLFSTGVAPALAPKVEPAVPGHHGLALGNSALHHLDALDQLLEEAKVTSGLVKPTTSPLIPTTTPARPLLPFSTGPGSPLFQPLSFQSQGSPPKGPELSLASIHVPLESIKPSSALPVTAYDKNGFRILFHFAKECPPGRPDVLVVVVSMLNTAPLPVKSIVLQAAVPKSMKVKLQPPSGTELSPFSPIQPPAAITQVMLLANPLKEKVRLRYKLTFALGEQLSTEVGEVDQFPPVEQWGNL

B1: recombinant caspase 3 (Pharmingen) (protein)
chain: SGISLDNSYKMDYPEMGLCIIINNKNFHKSTGMTSRSGTDVDAANLRETFRNLKYEVRNKNDLTREEIVELMRDVSKEDHSKRSSFVCVLLSHGEEGIIFGTNGPVDLKKITNFFRGDRCRSLTGKPKLFIIQACRGTELDCGIETDSGVDDDMACHKIPVEADFLYAYSTAPGYYSWRNSKDGSWFIQSLCAMLKQYADKLEFMHILTRVNRKVATEFESFSFDATFHAKKQIPCIVSMLTKELYFYH
As for B1, the “cleavage of in vitro translated GGA3 (cold methionine), Western blot with anti-GGA3 antibody” value is “recombinant caspase 3 cleaves in vitro translated GGA3 (cold methionine) in three fragments” and the “cleavage of in vitro translated [35S]-methionine-labeled GGA3 (SDS-PAGE, phosphorimager)” value is on record as “Recombinant caspase 3 cleaved in vitro translated GGA3 in several fragments”.
